Assay results from PMC4975007.

Molecular target: Dbp2 (MBP-TEV-Dbp2 construct) (Saccharomyces cerevisiae, UniProt P24783 1-546)
Assay: fluorescence anisotropy

Sequence of Dbp2 (MBP-TEV-Dbp2 construct) (P24783 whole entry): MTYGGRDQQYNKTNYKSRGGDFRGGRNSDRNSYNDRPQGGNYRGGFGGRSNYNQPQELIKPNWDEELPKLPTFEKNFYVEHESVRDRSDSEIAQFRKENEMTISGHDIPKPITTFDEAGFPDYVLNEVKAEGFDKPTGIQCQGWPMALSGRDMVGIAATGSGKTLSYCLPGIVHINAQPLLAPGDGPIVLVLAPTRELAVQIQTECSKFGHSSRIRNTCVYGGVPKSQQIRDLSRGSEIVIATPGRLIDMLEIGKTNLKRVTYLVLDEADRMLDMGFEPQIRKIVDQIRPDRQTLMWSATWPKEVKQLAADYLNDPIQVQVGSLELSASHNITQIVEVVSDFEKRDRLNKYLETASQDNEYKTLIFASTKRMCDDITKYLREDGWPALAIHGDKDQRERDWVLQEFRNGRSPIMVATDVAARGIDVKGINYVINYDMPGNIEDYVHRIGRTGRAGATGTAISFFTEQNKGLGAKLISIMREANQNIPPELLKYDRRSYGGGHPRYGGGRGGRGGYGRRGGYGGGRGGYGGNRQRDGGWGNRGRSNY

AGCACCGUAAAGACGC (ssRNA) [16 nt ssRNA, 6-FAM]
Kd: 38 nM
